Article PMC3431827

Target: 2,4,6-TCP 4-monooxygenase (TcpA) from Cupriavidus necator JMP134 (Cupriavidus necator JMP134)
Assay: SEC-MALS; 100 μg TcpA on BioSep-SEC-S 2000 column, isocratic, 0.5 mL/min; multi-angle laser light scattering; tetramer

Question: Which stoichiometry N does the source give for “2,4,6-TCP 4-monooxygenase (TcpA) from Cupriavidus necator JMP134 (enzyme)” here?
Answer: 4
